Test results: the supplement of paper PMC10567573

B1: SLC22A15 (parent)
chain: IAQYALLGYFIRSWRTLAILVNLQ

Variants of: B1
Test: protein stability index of a GFP-peptide fusion (GPS, HEK-293T) (PSI 1-6); higher = more stable
Settings: c terminus: a fixed tail appended
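Note: lentivirally expressed fusions sorted by FACS into six bins by GFP to DsRed ratio, PSI derived from sequencing read proportions per bin multiplied by bin number.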

| Variant | protein stability index |
| --- | --- |
| IAQYALLGIFIRSWRTLAILVNLQ [Y9I] | 2.71 |
| IAQYALLGKFIRSWRTLAILVNLQ [Y9K] | 1.29 |
| IAQYALLGCFIRSWRTLAILVNLQ [Y9C] | 2.75 |
| IAQYALLGEFIRSWRTLAILVNLQ [Y9E] | 2.03 |
| IAQYALLGNFIRSWRTLAILVNLQ [Y9N] | 2.22 |
| IAQYALLGAFIRSWRTLAILVNLQ [Y9A] | 1.47 |
| IAQYALLGGFIRSWRTLAILVNLQ [Y9G] | 3.34 |
| IAQYALLGQFIRSWRTLAILVNLQ [Y9Q] | 4.48 |
| IAQYALLGDFIRSWRTLAILVNLQ [Y9D] | 2.57 |
| IAQYALLGWFIRSWRTLAILVNLQ [Y9W] | 2.92 |
| IAQYALLGYFIRSWRMLAILVNLQ [T16M] | 3.23 |
| IAQYALLGYFIRSWRRLAILVNLQ [T16R] | 3.13 |
| IAQYALLGYFIRSWRYLAILVNLQ [T16Y] | 3.88 |
| IAQYALLGYFIRSWRELAILVNLQ [T16E] | 2.07 |
| IAQYALLGYFIRSWRNLAILVNLQ [T16N] | 2.63 |
| IAQYALLGYFIRSWRGLAILVNLQ [T16G] | 2.8 |
| IAQYALLGYFIRSWRQLAILVNLQ [T16Q] | 3.17 |
| IAQYALLGYFIRSWRLLAILVNLQ [T16L] | 2.43 |
| IAQYALLGYFIRSWRKLAILVNLQ [T16K] | 1.98 |
| IAQYALLGYFIRSWRCLAILVNLQ [T16C] | 4.17 |
| IAQYALLGYFIRSWRDLAILVNLQ [T16D] | 1.58 |
| IAQYALLGYFIRSWRHLAILVNLQ [T16H] | 3.46 |
| IAQYALLGYFIRSWRVLAILVNLQ [T16V] | 3.34 |
| IAQYALLGYFIRSWRILAILVNLQ [T16I] | 4.01 |

| Variant | protein stability index |
| --- | --- |
| IAQYALLGYFIRSWRALAILVNLQ [T16A] | 3.28 |
| IAQYALLGYFIRSWRSLAILVNLQ [T16S] | 3.05 |
| IAQYALLGYFIRSWRPLAILVNLQ [T16P] | 5.02 |
| IAQYALLGYFIFSWRTLAILVNLQ [R12F] | 3.61 |
| IAQYALLGYFIWSWRTLAILVNLQ [R12W] | 2.88 |
| IAQYALLGYFIPSWRTLAILVNLQ [R12P] | 2.67 |
| IAQYALLGYFITSWRTLAILVNLQ [R12T] | 1.97 |
| IAQYALLGYFIVSWRTLAILVNLQ [R12V] | 2.34 |
| IAQYALLGYFICSWRTLAILVNLQ [R12C] | 2.67 |
| IAQYALLGYFIHSWRTLAILVNLQ [R12H] | 2.5 |
| IAQYALLGYFINSWRTLAILVNLQ [R12N] | 2.27 |
| IAQYALLGYFIYSWRTLAILVNLQ [R12Y] | 3.46 |
| IAQYALLGYFIGSWRTLAILVNLQ [R12G] | 2.97 |
| IAQYALLGYFIESWRTLAILVNLQ [R12E] | 3.81 |
| IAQYALLGYFIQSWRTLAILVNLQ [R12Q] | 1.93 |
| IAQYALLGYFIMSWRTLAILVNLQ [R12M] | 2.98 |
| IAQYALLGYFIDSWRTLAILVNLQ [R12D] | 1.86 |
| IAQYALLGYFILSWRTLAILVNLQ [R12L] | 2.94 |
| IAQYALLGYFISSWRTLAILVNLQ [R12S] | 3.61 |
| IAQYALLGYFIKSWRTLAILVNLQ [R12K] | 2.95 |
| IAQYALLGYFIISWRTLAILVNLQ [R12I] | 3.48 |
| IAQYALLGYFIRSWVTLAILVNLQ [R15V] | 2.88 |
| IAQYALLGYFIRSWSTLAILVNLQ [R15S] | 2 |
| IAQYALLGYFIRSWITLAILVNLQ [R15I] | 3.23 |

| Variant | protein stability index |
| --- | --- |
| IAQYALLGYFIRSWCTLAILVNLQ [R15C] | 2.86 |
| IAQYALLGYFIRSWDTLAILVNLQ [R15D] | 4.08 |
| IAQYALLGYFIRSWLTLAILVNLQ [R15L] | 2.95 |
| IAQYALLGYFIRSWATLAILVNLQ [R15A] | 2.1 |
| IAQYALLGYFIRSWQTLAILVNLQ [R15Q] | 2.52 |
| IAQYALLGYFIRSWKTLAILVNLQ [R15K] | 3.15 |
| IAQYALLGYFIRSWTTLAILVNLQ [R15T] | 4.03 |
| IAQYALLGYFIRSWNTLAILVNLQ [R15N] | 3.78 |
| IAQYALLGYFIRSWYTLAILVNLQ [R15Y] | 2.65 |
| IAQYALLGYFIRSWHTLAILVNLQ [R15H] | 2.65 |
| IAQYALLGYFIRSWMTLAILVNLQ [R15M] | 2.18 |
| IAQYALLGYFIRSWFTLAILVNLQ [R15F] | 3.18 |
| IAQYALLGYFIRSWGTLAILVNLQ [R15G] | 4.28 |
| IAQYALLGYFIRSWETLAILVNLQ [R15E] | 1.81 |
| IAQYALLGYFIRSWWTLAILVNLQ [R15W] | 3.4 |
| IAQYALLGYFIRHWRTLAILVNLQ [S13H] | 3.68 |
| IAQYALLGYFIRMWRTLAILVNLQ [S13M] | 3.12 |
| IAQYALLGYFIRPWRTLAILVNLQ [S13P] | 2 |
| IAQYALLGYFIRRWRTLAILVNLQ [S13R] | 3.53 |
| IAQYALLGYFIRYWRTLAILVNLQ [S13Y] | 2.3 |
| IAQYALLGYFIRKWRTLAILVNLQ [S13K] | 1.4 |
| IAQYALLGYFIRLWRTLAILVNLQ [S13L] | 4.37 |
| IAQYALLGYFIRCWRTLAILVNLQ [S13C] | 3.26 |
| IAQYALLGYFIRDWRTLAILVNLQ [S13D] | 3.34 |

| Variant | protein stability index |
| --- | --- |
| IAQYALLGYFIRAWRTLAILVNLQ [S13A] | 2.29 |
| IAQYALLGYFIRTWRTLAILVNLQ [S13T] | 3.14 |
| IAQYALLGYFIRIWRTLAILVNLQ [S13I] | 3.82 |
| IAQYALLGYFIRQWRTLAILVNLQ [S13Q] | 2.61 |
| IAQYALLGYFIRVWRTLAILVNLQ [S13V] | 2.11 |
| IAQYALLGYFIRGWRTLAILVNLQ [S13G] | 2.4 |
| IAQYALLGYFIRWWRTLAILVNLQ [S13W] | 2.3 |
| IAQYALLGYFIRNWRTLAILVNLQ [S13N] | 2.56 |
| IAQYALLGYFIRFWRTLAILVNLQ [S13F] | 2.29 |
| IAQYALLGYFIRSWRTPAILVNLQ [L17P] | 2.05 |
| IAQYALLGYFIRSWRTAAILVNLQ [L17A] | 3.45 |
| IAQYALLGYFIRSWRTIAILVNLQ [L17I] | 2.52 |
| IAQYALLGYFIRSWRTEAILVNLQ [L17E] | 3.59 |
| IAQYALLGYFIRSWRTRAILVNLQ [L17R] | 1.98 |
| IAQYALLGYFIRSWRTKAILVNLQ [L17K] | 2.4 |
| IAQYALLGYFIRSWRTHAILVNLQ [L17H] | 3.02 |
| IAQYALLGYFIRSWRTMAILVNLQ [L17M] | 2.57 |
| IAQYALLGYFIRSWRTFAILVNLQ [L17F] | 2.3 |
| IAQYALLGYFIRSWRTDAILVNLQ [L17D] | 2.83 |
| IAQYALLGYFIRSWRTGAILVNLQ [L17G] | 3.63 |
| IAQYALLGYFIRSWRTQAILVNLQ [L17Q] | 2.85 |
| IAQYALNGYFIRSWRTLAILVNLQ [L7N] | 3.3 |
